Test results reported in the supplement of paper PMC7877785.
± gives the uncertainty stated by the source.

Assay: self-splicing fitness, log relative to wild type (ln ratio); higher = more splicing; Tetrahymena group I intron in knt gene, E. coli kanamycin selection, DiMSum; sequences stand for … in CUCUCU…GGAGGGAAAAGUUAUCAGGCAUGCACCUGGUAGCUAGUCUUUAAACCAAUAGAUUGCAUCGGUUUAAAAGGCAAGACCGUCAAAUUGCGGGAAAGGGGUCAACAGCCGUUCAGUACCAAGUCUCAGGGGAAACUUUGAGAUGGCCUUGCAAAGGGUAUGGUAAUAAGCUGACGGACAUGGUCCUAACCACGCAGCCAAGUCCUAAGUCAACAGAUCUUCUGUUGAUAUGGAUGCAGUUCACAGACUAAAUGUCGGUCGGGGAAGAUGUAUUCUUCUCAUAAGAUAUAGUCGGACCUCUCCUUAAUGGGAGCUAGCGGAUGAAGUGAUGCAACACUGGAGCCGCUGGGAACUAAUUUGUAUGCGAAAGUAUAUUGAUUAGUUUUGGAGUACUCGUGGUCG
How it was run: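 Colonies from six replicate transformations of E. coli BL21(DE3) were pooled and amplicon-sequenced on an Illumina HiSeq 2500. The library placed an intron with all eight P1ex-region nucleotides randomised inside the knt kanamycin-resistance gene on pET-22b(+), and cells grew overnight at 37°C or 30°C on LB agar with or without 25 μg/mL kanamycin (plus 100 μg/mL carbenicillin, 50 μM IPTG, 0.2% rhamnose). Fitness is the DiMSum error-weighted combination of wild-type-normalised replicate fold changes, kanamycin versus none.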

| Sequence | self-splicing fitness (ln) (30 °C) | self-splicing fitness (ln) (37 °C) |
| --- | --- | --- |
| GAUCAGCAAUAUUACGUAUG | -0.935 ± 0.084 | -0.276 ± 0.097 |
| GAUCAGCAAUAUUACGUGAC | -1.62 ± 0.094 | -1.63 ± 0.12 |
| GAUCAGCAAUAUUACGUGCU | -3.41 ± 0.15 | -2.2 ± 0.16 |
| GAUCAGCAAUAUUACGUGGU | -4.81 ± 0.27 | -2.15 ± 0.13 |
| GAUCAGCAAUAUUACGUGUC | -2.74 ± 0.11 | -2.19 ± 0.17 |
| GAUCAGCAAUAUUACGUUAA | -1.23 ± 0.076 | -0.776 ± 0.084 |
| GAUGAGCAAUAUUACGAAUG | -2.71 ± 0.21 | -2.67 ± 0.34 |
| GAUGAGCAAUAUUACGACCA | -3.85 ± 0.35 | -3.8 ± 0.39 |
| GAUGAGCAAUAUUACGCAUC | -2.56 ± 0.25 | -2.32 ± 0.28 |
| GAUGAGCAAUAUUACGCCAU | -2.56 ± 0.14 |  |
| GAUGAGCAAUAUUACGCGUA | -1.96 ± 0.29 | -1.85 ± 0.33 |
| GAUGAGCAAUAUUACGGAUC | -2.36 ± 0.23 | -1.78 ± 0.19 |
| GAUGAGCAAUAUUACGGCUU | -2.34 ± 0.14 | -1.12 ± 0.14 |
| GAUGAGCAAUAUUACGGGAC |  | -3.23 ± 0.4 |
| GAUGAGCAAUAUUACGGGGG | -4.46 ± 0.34 | -1.44 ± 0.25 |
| GAUGAGCAAUAUUACGUAUU | -3.83 ± 0.34 | -3.78 ± 0.36 |
| GAUUAGCAAUAUUACGAAUC | -4.13 ± 0.37 | -1.82 ± 0.31 |
| GAUUAGCAAUAUUACGACCC | -0.91 ± 0.24 | 0.12 ± 0.24 |
| GAUUAGCAAUAUUACGAGCC | -0.73 ± 0.31 | -1.4 ± 0.38 |
| GAUUAGCAAUAUUACGAUCU | -0.776 ± 0.2 | -2.2 ± 0.38 |
| GAUUAGCAAUAUUACGCAAA | -2.19 ± 0.18 | -2.24 ± 0.19 |
| GAUUAGCAAUAUUACGCCCC | -1.52 ± 0.46 | -0.314 ± 0.48 |
| GAUUAGCAAUAUUACGCCGC | -3.47 ± 0.24 | -2.28 ± 0.21 |
| GAUUAGCAAUAUUACGCCGG | -2.88 ± 0.45 | -1.96 ± 0.41 |
| GAUUAGCAAUAUUACGCGGG | -2.31 ± 0.12 | -2.53 ± 0.18 |

| Sequence | self-splicing fitness (ln) (30 °C) | self-splicing fitness (ln) (37 °C) |
| --- | --- | --- |
| GAUUAGCAAUAUUACGCGGU | -3.5 ± 0.47 | -3.43 ± 0.33 |
| GAUUAGCAAUAUUACGCGUG | -1.23 ± 0.091 | 0.595 ± 0.11 |
| GAUUAGCAAUAUUACGCUAG | -1.95 ± 0.17 | -0.989 ± 0.15 |
| GAUUAGCAAUAUUACGCUAU | -2.97 ± 0.41 |  |
| GAUUAGCAAUAUUACGCUGA | -3.17 ± 0.23 | -2.53 ± 0.27 |
| GAUUAGCAAUAUUACGCUGG | -1.73 ± 0.14 | -1.68 ± 0.22 |
| GAUUAGCAAUAUUACGCUUU | -2.1 ± 0.46 | -1.9 ± 0.33 |
| GAUUAGCAAUAUUACGUAAU | -3.06 ± 0.18 | -0.741 ± 0.12 |
| GAUUAGCAAUAUUACGUAUC |  | -2.77 ± 0.36 |
| GAUUAGCAAUAUUACGUCAU | -2.76 ± 0.24 | -1.79 ± 0.36 |
| GAUUAGCAAUAUUACGUGGG | -3.52 ± 0.32 | -2.47 ± 0.27 |
| GAUUAGCAAUAUUACGUUUA | -2.9 ± 0.25 | -1.05 ± 0.15 |
| GCAAAGCAAUAUUACGACGC | -1.27 ± 0.082 | -1.2 ± 0.11 |
| GCAAAGCAAUAUUACGAGGC | -3.55 ± 0.34 | -2.77 ± 0.4 |
| GCAAAGCAAUAUUACGAGUU | -2.47 ± 0.11 | -0.891 ± 0.093 |
| GCAAAGCAAUAUUACGAUAA | -1.48 ± 0.086 | -1.14 ± 0.1 |
| GCAAAGCAAUAUUACGCAUA | -1.86 ± 0.14 | -1.43 ± 0.18 |
| GCAAAGCAAUAUUACGCCCG | -1.23 ± 0.22 | -2.06 ± 0.38 |
| GCAAAGCAAUAUUACGCCGG | -2.44 ± 0.17 | -1.71 ± 0.2 |
| GCAAAGCAAUAUUACGCCUU | -2.55 ± 0.23 | -1.04 ± 0.21 |
| GCAAAGCAAUAUUACGCGGC | -3.95 ± 0.21 | -2.43 ± 0.19 |
| GCAAAGCAAUAUUACGCUAU | -2.57 ± 0.23 | -1.06 ± 0.17 |
| GCAAAGCAAUAUUACGCUCC | -3.61 ± 0.34 | -3.03 ± 0.43 |
| GCAAAGCAAUAUUACGGAGC | -3.91 ± 0.34 | -2.07 ± 0.19 |
